Data on 9 molecules can be found in patent US20220340682A1 (Sanofi, published 2022).

Where a chain is given by its changes, count along the chain named.

For experiment [1], the target named is T1, human CEACAM5 expressed on the surface of tumor cells (human, UniProt P06731 35-685).
T1 construct: Endogenous CEACAM5 of human tumor cells; also called hCEACAM5 on MKN45 cells; CEACAM5 on CR-IGR-034P primary colon tumor cells
T1 sequence: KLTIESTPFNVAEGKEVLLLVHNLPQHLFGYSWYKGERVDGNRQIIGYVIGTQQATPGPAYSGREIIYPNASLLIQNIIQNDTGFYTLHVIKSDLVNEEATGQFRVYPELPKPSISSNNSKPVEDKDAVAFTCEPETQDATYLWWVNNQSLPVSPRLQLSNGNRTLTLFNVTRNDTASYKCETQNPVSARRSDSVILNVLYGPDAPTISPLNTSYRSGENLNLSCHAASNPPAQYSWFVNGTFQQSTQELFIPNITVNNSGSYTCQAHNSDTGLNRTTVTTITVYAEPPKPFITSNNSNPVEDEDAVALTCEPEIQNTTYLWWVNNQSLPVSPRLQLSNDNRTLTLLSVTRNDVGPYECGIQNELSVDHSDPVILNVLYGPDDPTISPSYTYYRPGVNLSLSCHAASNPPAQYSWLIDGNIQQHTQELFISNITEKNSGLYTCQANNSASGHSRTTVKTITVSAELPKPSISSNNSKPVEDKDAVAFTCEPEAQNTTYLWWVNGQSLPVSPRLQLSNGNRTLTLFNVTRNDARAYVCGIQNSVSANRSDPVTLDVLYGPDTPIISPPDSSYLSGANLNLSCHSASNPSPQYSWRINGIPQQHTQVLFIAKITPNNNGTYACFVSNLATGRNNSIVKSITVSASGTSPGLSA
Nature of the experiment: apparent KD, flow cytometry on CR-IGR-034P primary colon tumor cells. On the procedure:
Advanced human primary colon tumor CR-IGR-034P (Julien et al., Clin Cancer Res Oct. 1, 2012 18:5314-5328) was obtained from Patient-derived xenograft in mice. Tumor CR-IGR-034P was enzymatically dissociated using collagenase Type IV (Invitrogen; #17104-019) and deoxyribonuclease I (Invitrogen; #18047-019) for 1 h at […], Cell viability was estimated by Viacount application using Guava® easyCyte™ 8HT Flow Cytometry System. […] 100 μL/well of goat anti-mouse IgG conjugated with Alexa647 (Invitrogen; # A2135) or goat anti-human IgG conjugated with Alexa488 (Invitrogen; # A11013) was added for 45 min at 4° C. and washed three times with PBS 1% BSA. The antibody binding was evaluated after centrifugation and resuspension of cells by adding 200 pliwell PBS 1% BSA and read using Guava® easyCyte™ 8HT Flow Cytometry System. Apparent KD and EC50 values were estimated using BIOST@T-BINDING and BIOST@T-SPEED softwares, respectively.
Background: In flow cytometry, cells or beads pass a laser one at a time.

In experiment [2] the target is T2, hCEACAM5, human CEACAM5 ECD (35-685) (human, UniProt P06731 35-685).
T2 construct: produced in HEK293; also called human CEACAM5 protein; human CEACAM5 extracellular domain
T2 sequence: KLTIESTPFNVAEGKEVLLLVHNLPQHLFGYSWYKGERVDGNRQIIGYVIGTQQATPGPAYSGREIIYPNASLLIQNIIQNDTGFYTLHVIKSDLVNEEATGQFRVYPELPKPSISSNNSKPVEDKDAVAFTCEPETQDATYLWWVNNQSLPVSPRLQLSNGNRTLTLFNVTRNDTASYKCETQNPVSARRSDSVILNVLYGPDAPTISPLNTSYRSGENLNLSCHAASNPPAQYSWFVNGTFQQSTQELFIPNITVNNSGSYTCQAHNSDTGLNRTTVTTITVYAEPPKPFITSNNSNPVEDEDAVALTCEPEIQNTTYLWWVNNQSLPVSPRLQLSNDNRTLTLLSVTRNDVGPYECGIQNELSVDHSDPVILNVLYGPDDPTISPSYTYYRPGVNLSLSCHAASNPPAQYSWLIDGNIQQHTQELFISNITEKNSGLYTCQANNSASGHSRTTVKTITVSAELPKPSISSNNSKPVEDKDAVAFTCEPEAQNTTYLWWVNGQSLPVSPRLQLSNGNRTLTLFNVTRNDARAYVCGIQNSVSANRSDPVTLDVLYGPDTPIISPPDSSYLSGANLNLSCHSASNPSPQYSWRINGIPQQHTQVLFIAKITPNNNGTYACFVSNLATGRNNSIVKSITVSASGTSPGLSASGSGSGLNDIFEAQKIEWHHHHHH
Nature of the experiment: ELISA, murine hybridoma mAb. In general terms: An ELISA detects its analyte on a solid surface through an enzyme-linked reagent.

For experiment [3], the target named is T3, cCEACAM5, M. fascicularis CEACAM5 ECD (35-688) (Macaca fascicularis).
T3 construct: ECD followed by a 24 amino acid extension containing a His-Tag; also called cynomolgus CEACAM5; monkey CEACAM5
T3 chain: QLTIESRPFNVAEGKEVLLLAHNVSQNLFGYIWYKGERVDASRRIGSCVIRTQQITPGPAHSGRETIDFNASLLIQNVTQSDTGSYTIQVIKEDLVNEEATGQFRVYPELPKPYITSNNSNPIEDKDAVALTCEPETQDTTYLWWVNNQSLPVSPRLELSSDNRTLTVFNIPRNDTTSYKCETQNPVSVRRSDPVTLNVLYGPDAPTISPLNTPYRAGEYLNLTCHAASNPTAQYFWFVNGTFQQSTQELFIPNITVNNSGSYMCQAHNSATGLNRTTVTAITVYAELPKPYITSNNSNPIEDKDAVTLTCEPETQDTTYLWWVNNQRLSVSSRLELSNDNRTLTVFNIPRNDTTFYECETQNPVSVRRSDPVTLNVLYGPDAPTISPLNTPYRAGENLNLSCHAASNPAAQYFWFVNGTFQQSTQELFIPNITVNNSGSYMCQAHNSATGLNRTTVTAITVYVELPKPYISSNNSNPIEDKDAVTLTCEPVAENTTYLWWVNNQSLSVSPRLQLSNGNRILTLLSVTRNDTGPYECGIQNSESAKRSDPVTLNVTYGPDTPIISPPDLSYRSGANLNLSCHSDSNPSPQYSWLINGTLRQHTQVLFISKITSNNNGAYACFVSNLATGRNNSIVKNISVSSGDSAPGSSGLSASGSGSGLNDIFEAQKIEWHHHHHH
Nature of the experiment: ELISA, murine hybridoma mAb.

Experiment [4] deals with T2, hCEACAM5, human CEACAM5 ECD (35-685). Nature of the experiment: ELISA.
For experiment [5], the target named is T3, cCEACAM5, M. fascicularis CEACAM5 ECD …. Nature of the experiment: ELISA.

B1: antibody MAb4 (antibody, IgG1, V domains shown)
VH: EVQLVESGGGLVKPGGSLKLSCAASGFTFSSYDMSWVRQTPEKRLEWVAFISSYGGRTYYADTVKGRFTISRDNAKNTLYLQMSSLKSEDTAMFYCAAHYFGTSGPFAYWGQGTLVTVSA
VL: DIQMTQSPASLSASVGETVTITCRASENIYSYFAWYQQKQGKSPQLLVYNAKILAEGVPSRFSGSGSGTQFSLKINSLQPEDFGTYYCQHHYGIPFTFGSGTKLELK
notes: Murine monoclonal from hybridoma, IgG1, kappa
For orientation: EC50 means the concentration at which the effect is half-maximal. The low end stands for an effect from little substance, the high end for a need for much substance. Regarding B1, the Kd in experiment [1] amounted to 160 pM. Moreover, the figures for the EC50 in experiment [2] and in experiment [3] were 80 pM and 50 pM, respectively.

B2: antibody MAb5 (antibody, IgG1, V domains shown)
VH: ELQLVESGGVLVKPGGSLKLSCAASGFAFSSYDMSWVRQTPEKRLEWVTYINSGGGITYYPDTVKGRFTISRDNARNTLYLQMSSLKSEDTAIYYCTAHYFGSSGPFAYWGQGTLVTVSA
VL: B1 VL with F33L, I53T, A55T, T85S, I94T, L106I
notes: as for B1
As for B2, the Kd in experiment [1] came to 500 pM. In addition, the 50% effective concentration (EC50) in experiment [2] was determined as 400 pM; in experiment [3], 450 pM.

B3: huMAb2-3 (antibody, human IgG1, kappa, V domains shown)
VH: EVQLQESGPGLVKPGGSLSLSCAASGFVFSSYDMSWVRQTPERGLEWVAYISSGGGITYAPSTVKGRFTVSRDNAKNTLYLQMNSLTSEDTAVYYCAAHYFGSSGPFAYWGQGTLVTVSS
VL: DIQMTQSPASLSASVGDRVTITCRASENIFSYLAWYQQKPGKSPKLLVYNTRTLAEGVPSRFSGSGSGTDFSLTISSLQPEDFATYYCQHHYGTPFTFGSGTKLEIKR
notes: Humanized MAb2, human IgG1 / Ckappa; also called MAb2_VL1cVH1a-IgG1
As to B3, the EC50 in experiment [4] turned out to be 180 pM; in experiment [5] it was 190 pM.

B4: huMAb2-1 (antibody, V domains shown)
VH: B3 VH with G44R, A60F, V93I, S120A
VL: DIQMTQSPASLSASVGDTVTITCRASENIFSYLAWYQQKPGKSPKLLVYNTKTLAEGVPSRFSGSGSGTQFSLTISSLQPEDFGSYYCQHHYGTPFTFGSGTKLEIK
notes: Humanized MAb2 (VL1 + VH1) fused to human IgG1 and human Ckappa constant domains; also called MAb2_VL1VH1-IgG1; MAb2VL1VH1-IgG1
In the case of B4, the concentration for a half-maximal effect (EC50) is 220 pM in experiment [4] and 200 pM in experiment [5].

B5: huMAb2-4 (antibody, human IgG1, kappa, V domains shown)
VH: B3 VH with G44R, A60F, V93I, S120A
VL: B3 VL with R18T, D70Q, A84G, T85S
notes: Humanized MAb2, human IgG1 / Ckappa; also called MAb2_VL1d VH1-IgG1; MAb2_VL1dVH1-IgG1
Take B5: the EC50 turned out to be 220 pM in experiment [4] and 170 pM in experiment [5].

B6: huMAb2-2 (antibody, V domains shown)
VH: B3 VH
VL: B4 VL with T18R, Q70D, G84A, S85T
notes: Humanized MAb2 (VL1a + VH1a) fused to human IgG1 and human Ckappa constant domains; also called MAb2_VL1aVH1a-IgG1; MA2_VL1aVH1a-IgG1
On to B6, for which the half-maximal effective concentration (EC50) is 200 pM in experiment [4] and 170 pM in experiment [5].

B7: chMAb2 (antibody, human IgG1, kappa, V domains shown)
VH: EVQLQESGGVLVKPGGSLKLSCAASGFVFSSYDMSWVRQTPEKRLEWVAYISSGGGITYFPDTVQGRFTVSRDNAKNTLYLQMNSLKSEDTAIYYCAAHYFGSSGPFAYWGQGTLVTVSA
VL: B3 VL with D17E, R18T, P40Q, K45Q, R52K, D70Q, T74K, S76N, A84G, T85S
notes: Chimeric, human IgG1, Ck isotype; also called MAb2-IgG1; chimeric MAb2
Consider B7, for which the EC50 in experiment [4] is 160 pM; in experiment [5] it was 170 pM.

B8: antibody MAb1 (antibody, IgG1, V domains shown)
VH: EVMLVESGGGLVKPGGSLKLSCAASGFTFSSYAMSWVRQTPEKRLEWVATISSGGSYIYYLDSVKGRFTISRDNAKNTLYLQMSSLRSEDTAMYYCARPAYYGNPAMDYWGQGTSVTVSS
VL: DILMTQSQKFMSTSVGDRVSVTCKASQNVGTNVAWYQQKPGQSPKPLIYSASYRYSGVPDRFTGSGSGTDFTLTISNVQSEDLAEYFCQQYNSYPLYTFGGGTKLEIK
B8: the Kd in experiment [1] worked out at 1920 pM. Also, a half-maximal response in experiment [3] (EC50) required 1180 pM.

B9: antibody MAb3 (antibody, IgG1, V domains shown)
VH: EVKLVESGGGLVKPGGSLTLPCAASGFTFSRYAMSWVRQTPEKRLEWVASISSGGDTYYPDSVKGRFTVSRDNARNILFLQMSSLRSEDTGMYYCARVNYYDSSFLDWWGQGTTLTVSS
VL: B8 VL with L3V, K9R, S14L, V15E, P46A, S93N
notes: as for B1
B9: the Kd in experiment [1] came to 1010 pM. In addition, the EC50 in experiment [2] came out at 360 pM; in experiment [3] it was 3720 pM.
